Laboratory results: patent US10808017B2, “Ubiquitin variants and uses therof as 53BP1 inhibitors” (The Governing Council of the University of Toronto, priority 2016, dated 2020)

Experiments:
RPL17 = biological target: T1, RPL17 (Homo sapiens, UniProt P18621); assay: Flag IP-MS of i53/i53-DM baits: prey RPL17; type: binding; conditions: 293T Flp-In/T-Rex extracts, LC-MS/MS, one column per replicate IP
T1 construct: endogenous in cells; host or cells: HEK293 Flp-In/T-REx
Method: (§1) Following immunoprecipitation of Flag-tagged i53 and i-53-DM from HEK293 Flp-In/T-REx cells, peptides were identified using LC-MS/MS. Proteins were digested in solution with trypsin (Sigma, T7575-1KT) and dried to completeness. For LC-MS/MS analysis, peptides were reconstituted in 5% formic acid and loaded onto a 12-15 cm fused silica column with pulled tip packed in-house with 3.5 μm Zorbax C18 (Agilent Technologies, Calif., USA).
(§2) i53 and i53-DM precipitates were analyzed using an LTQ (Thermo Scientific) coupled to an Agilent 1100 Series HPLC (Agilent Technologies). Peptides were eluted from the column using a 90 min period cycle with a linear gradient from 0% to 40% ACN in 0.1% formic acid. Tandem MS spectra were acquired in a data-dependent mode for the top 5 (LTQ) most abundant ions using collision-induced dissociation. Acquired spectra were searched against the human Refseq_V53 database using Mascot (Matrix Science).
(§3) 293T Flp-In/T-Rex cell lines were generated that expressed Flag-tagged i53 or i53-DM under the control of a tetracycline-inducible promoter as previously described. Nine IP-MS experiments were analyzed (3 biological replicate IPs each for control i53- and i53-DM expressing cell lines). The interacting proteins were identified by MASCOT to identify high-confidence interactors for i53. […]

VPS13C = biological target: T2, VPS13C (Homo sapiens, UniProt Q709C8); assay: Flag IP-MS of i53/i53-DM baits: prey VPS13C; type: binding; conditions: 293T Flp-In/T-Rex extracts, LC-MS/MS, one column per replicate IP
T2 construct: endogenous in cells; host or cells: HEK293 Flp-In/T-REx cells
T2 sequence (Q709C8 whole entry): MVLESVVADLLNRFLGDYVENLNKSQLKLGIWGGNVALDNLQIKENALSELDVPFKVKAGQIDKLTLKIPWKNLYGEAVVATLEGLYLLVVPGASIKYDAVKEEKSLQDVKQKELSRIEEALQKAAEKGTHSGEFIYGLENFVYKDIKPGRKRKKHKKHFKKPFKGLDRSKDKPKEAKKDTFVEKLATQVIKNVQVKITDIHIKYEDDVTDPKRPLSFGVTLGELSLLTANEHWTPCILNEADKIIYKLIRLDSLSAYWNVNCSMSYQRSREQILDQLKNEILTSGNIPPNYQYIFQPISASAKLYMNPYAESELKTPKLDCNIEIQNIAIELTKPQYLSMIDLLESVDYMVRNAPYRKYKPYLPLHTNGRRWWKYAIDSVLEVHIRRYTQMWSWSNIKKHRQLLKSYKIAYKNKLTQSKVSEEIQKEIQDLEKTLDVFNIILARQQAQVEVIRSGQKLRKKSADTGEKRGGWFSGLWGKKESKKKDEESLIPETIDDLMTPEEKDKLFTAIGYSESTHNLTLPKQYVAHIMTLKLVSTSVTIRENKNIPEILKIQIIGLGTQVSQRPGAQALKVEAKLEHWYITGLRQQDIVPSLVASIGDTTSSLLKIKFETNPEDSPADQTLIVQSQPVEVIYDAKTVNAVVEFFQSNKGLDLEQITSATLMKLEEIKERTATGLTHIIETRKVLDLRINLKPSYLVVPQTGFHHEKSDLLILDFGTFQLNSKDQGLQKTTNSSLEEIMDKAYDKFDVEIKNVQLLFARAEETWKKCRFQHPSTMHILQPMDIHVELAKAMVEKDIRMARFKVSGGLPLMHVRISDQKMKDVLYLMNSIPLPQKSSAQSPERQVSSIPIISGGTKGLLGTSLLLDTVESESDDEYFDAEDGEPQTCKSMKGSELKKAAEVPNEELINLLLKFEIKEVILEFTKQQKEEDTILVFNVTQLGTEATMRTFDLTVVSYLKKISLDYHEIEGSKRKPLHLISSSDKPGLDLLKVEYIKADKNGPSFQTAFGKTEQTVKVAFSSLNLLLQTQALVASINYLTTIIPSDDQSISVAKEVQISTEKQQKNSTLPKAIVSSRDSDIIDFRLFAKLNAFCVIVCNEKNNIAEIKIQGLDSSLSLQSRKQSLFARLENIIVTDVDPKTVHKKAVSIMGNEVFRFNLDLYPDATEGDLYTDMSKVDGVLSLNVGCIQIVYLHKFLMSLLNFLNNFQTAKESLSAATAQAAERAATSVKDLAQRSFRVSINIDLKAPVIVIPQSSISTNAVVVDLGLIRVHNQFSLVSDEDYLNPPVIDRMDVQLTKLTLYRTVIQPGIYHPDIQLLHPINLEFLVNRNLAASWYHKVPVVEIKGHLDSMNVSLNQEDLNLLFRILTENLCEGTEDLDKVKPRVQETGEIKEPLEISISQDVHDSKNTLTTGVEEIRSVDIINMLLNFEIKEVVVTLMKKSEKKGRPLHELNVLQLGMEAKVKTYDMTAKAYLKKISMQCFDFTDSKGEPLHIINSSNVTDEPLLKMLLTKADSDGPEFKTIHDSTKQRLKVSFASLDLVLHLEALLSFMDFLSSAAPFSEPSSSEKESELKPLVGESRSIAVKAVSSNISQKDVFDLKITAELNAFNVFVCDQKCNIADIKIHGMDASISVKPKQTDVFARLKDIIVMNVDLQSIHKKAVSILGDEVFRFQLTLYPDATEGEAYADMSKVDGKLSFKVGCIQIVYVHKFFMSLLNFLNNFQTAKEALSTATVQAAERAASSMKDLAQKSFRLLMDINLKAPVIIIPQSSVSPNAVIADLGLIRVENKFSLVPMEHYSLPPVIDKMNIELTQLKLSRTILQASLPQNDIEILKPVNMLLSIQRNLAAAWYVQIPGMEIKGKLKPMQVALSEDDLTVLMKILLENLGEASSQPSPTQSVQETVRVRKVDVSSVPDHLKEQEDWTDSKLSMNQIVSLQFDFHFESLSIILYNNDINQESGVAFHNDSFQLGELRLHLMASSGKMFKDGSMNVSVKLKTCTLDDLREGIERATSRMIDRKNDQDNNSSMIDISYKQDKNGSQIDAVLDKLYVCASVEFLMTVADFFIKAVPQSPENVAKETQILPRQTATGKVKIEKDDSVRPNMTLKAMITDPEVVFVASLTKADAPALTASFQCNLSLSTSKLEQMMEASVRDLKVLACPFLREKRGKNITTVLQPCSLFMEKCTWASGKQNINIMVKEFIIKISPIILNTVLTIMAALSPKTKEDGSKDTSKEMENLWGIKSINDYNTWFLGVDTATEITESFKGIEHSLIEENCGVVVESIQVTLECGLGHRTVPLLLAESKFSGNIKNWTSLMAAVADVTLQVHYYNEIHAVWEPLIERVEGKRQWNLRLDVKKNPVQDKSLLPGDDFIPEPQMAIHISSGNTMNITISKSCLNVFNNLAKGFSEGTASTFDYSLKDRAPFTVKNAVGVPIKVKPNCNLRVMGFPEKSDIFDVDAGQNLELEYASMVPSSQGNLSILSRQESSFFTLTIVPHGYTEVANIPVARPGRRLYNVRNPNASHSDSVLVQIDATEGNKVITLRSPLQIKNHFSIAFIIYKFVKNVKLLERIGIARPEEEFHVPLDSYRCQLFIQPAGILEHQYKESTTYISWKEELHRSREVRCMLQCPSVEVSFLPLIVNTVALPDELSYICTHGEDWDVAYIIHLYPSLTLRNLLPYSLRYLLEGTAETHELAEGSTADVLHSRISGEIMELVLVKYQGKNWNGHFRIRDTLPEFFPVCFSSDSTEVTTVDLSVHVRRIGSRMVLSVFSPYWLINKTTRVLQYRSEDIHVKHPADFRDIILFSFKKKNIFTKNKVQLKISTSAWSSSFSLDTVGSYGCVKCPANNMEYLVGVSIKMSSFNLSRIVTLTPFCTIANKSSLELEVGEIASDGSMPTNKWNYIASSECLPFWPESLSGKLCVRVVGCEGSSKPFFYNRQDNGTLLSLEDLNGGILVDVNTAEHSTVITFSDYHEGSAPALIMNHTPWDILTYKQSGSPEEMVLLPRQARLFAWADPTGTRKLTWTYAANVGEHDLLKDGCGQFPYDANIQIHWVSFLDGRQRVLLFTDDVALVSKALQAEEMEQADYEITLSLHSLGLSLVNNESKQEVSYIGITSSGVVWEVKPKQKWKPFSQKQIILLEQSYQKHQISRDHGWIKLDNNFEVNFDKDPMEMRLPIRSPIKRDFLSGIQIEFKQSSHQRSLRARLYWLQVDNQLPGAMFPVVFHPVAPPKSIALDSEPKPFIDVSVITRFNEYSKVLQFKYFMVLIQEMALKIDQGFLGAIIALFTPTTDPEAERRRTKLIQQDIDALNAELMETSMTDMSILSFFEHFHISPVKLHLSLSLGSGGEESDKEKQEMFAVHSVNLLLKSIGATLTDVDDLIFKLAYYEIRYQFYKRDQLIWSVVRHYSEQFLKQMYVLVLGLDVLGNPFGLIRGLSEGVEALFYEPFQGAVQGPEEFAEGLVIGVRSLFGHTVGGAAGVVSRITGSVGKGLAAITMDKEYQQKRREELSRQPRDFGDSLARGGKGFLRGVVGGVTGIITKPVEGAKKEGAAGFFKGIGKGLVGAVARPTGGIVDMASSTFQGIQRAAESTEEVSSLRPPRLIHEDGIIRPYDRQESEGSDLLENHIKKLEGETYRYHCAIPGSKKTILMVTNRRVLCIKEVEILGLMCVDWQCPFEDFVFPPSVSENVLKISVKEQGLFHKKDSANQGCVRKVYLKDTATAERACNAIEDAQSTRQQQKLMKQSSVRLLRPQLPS
Method: as §1, §2, §3

[1] = test system: γ-H2AX focus formation in U2OS cells; assay: Ionizing radiation focus formation, γ-H2AX (immunofluorescence); type: cell-based; conditions: transfected U2OS cells, 10 Gy, 1 h post-irradiation
Method: (§4) FIG. 3. The i53 protein inhibits 53BP1. FIG. 3A-B, U2OS cells were transfected with vectors expressing i53, its 53BP1-binding deficient mutant (DM) or an empty vector (EV) control. Cells were then X-irradiated with a 10 Gy dose and processed for immunofluorescence with the indicated antibodies 1 h post-irradiation (IR). DAPI staining (not shown) was used to delineate the outline (dashed lines) of the cell nuclei. The region in the magnified inset is indicated with a square. Quantitation of the experiment is shown in panel (a) and data is indicated as the mean±s.e.m (N=3), whereas in (b) representative micrographs are shown. Arrowheads indicate Flag-positive cells. FIG. 3C, Parental or 53BP1ΔU2OS cells transfected with vectors expressing i53, the DM mutant or an empty vector (EV) control were irradiated (10 Gy) 1 h before being processed for immunofluorescence. Cell cycle stage was assessed by Cyclin A staining. The data is presented as the mean±s.e.m.; N=3. FIG. 3D, Immunoprecipitation (IP) of Flag-tagged proteins from extracts prepared from 293T cells transfected with vectors expressing Flag-i53 or the i53-DM mutant. Proteins were separated by SDS-PAGE and immunoblotted (IB) for Flag and 53BP1. […]

[2] = test system: BRCA1 focus formation in U2OS cells; assay: Ionizing radiation focus formation, BRCA1 (immunofluorescence); type: cell-based; conditions: 10 Gy
Method: as §4

[3] = test system: BFP transgene in 293T cells; assay: ssODN-based BFP-to-GFP HR assay; type: cell-based; conditions: AAV-DJ transduced 293T cells, Cas9 RNP, 4 d, versus i53-DM
From the text: FIG. 11. 53BP1 inhibition by i53 stimulates ssODN-mediated homologous recombination. FIG. 11A, Schematic of the BFP-to-GFP conversion assay. Cells carrying a stably integrated BFP transgene are transfected with Cas9 ribonucleoproteins (RNPs) programmed with a gRNA against the BFP coding sequence along with an ssODN that converts 3 nucleotides of BFP into those that produce a GFP protein upon successful HR-mediated repair. FIG. 11B-C, 293T cells that were first transduced with AAV-DJ1 vectors coding for i53-DM or i53 with the BFP transgene were nucleofected with Cas9 RNPs and optimal (b) and suboptimal (c) ssODN repair donors that convert BFP to GFP. 4 d after nucleofection, GFP fluorescence was monitored by flow cytometry. […] 3 d post-nucleofection, genomic DNA was isolated and the presence of the Pcil restriction fragment length polymorphism (RFLP) was determined by restriction digest on PCR-amplified genomic DNA. […]
The BFP-to-GFP assay was performed essentially as described Richardson CD et al, Nat Biotechnol. […] After 4 days, BFP and GFP fluorescence were measured by flow cytometry on a BD Fortessa, and analyzed with FlowJo v10 software. […]

CFL1 = biological target: T3, CFL1 (Homo sapiens, UniProt P23528); assay: Flag IP-MS of i53/i53-DM baits: prey CFL1; type: binding; conditions: 293T Flp-In/T-Rex extracts, LC-MS/MS, one column per replicate IP
T3 construct: endogenous in cells; host or cells: HEK293 Flp-In/T-REx
T3 sequence (P23528 whole entry): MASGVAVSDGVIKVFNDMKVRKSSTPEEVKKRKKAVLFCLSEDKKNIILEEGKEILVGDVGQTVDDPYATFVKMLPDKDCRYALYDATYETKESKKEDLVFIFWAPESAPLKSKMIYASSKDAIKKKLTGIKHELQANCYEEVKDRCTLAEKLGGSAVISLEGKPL
Method: as §1, §2, §3

| Substance | Total peptides, RPL17 (RPL17) | Total peptides, VPS13C (VPS13C) | γ-H2AX focus formation [1] | BRCA1 accumulation at DSB sites in G1 cells ([2]; U2OS cells, cell cycle stage by Cyclin A staining) | BRCA1 focus formation ([2]; transfected U2OS cells, 1 h post-irradiation) | Stimulation of HDR by ssODNs, BFP-to-GFP conversion [3] | Total peptides, CFL1 (CFL1) |
| --- | --- | --- | --- | --- | --- | --- | --- |
| i53-DM: 53BP1-binding deficient mutant of i53 (P69L, L70V) | 5 | 5 |  |  |  |  |  |
| i53: UbvG08 with C-terminal di-glycine removed and I44A mutation; genetically encoded inhibitor of 53BP1 |  |  | did not impact | induced BRCA1 accumulation at DSB sites in G1 cells | did not impact | 1.3-1.4 fold | 6 |
